This is an account of results in the supplement of paper PMC7877785.

± gives the uncertainty stated by the source.

This data set is described as follows: self-splicing fitness, log relative to wild type (ln ratio); higher = more splicing; Tetrahymena group I intron in knt gene, E. coli kanamycin selection, DiMSum; sequences stand for … in CUCUCU…GGAGGGAAAAGUUAUCAGGCAUGCACCUGGUAGCUAGUCUUUAAACCAAUAGAUUGCAUCGGUUUAAAAGGCAAGACCGUCAAAUUGCGGGAAAGGGGUCAACAGCCGUUCAGUACCAAGUCUCAGGGGAAACUUUGAGAUGGCCUUGCAAAGGGUAUGGUAAUAAGCUGACGGACAUGGUCCUAACCACGCAGCCAAGUCCUAAGUCAACAGAUCUUCUGUUGAUAUGGAUGCAGUUCACAGACUAAAUGUCGGUCGGGGAAGAUGUAUUCUUCUCAUAAGAUAUAGUCGGACCUCUCCUUAAUGGGAGCUAGCGGAUGAAGUGAUGCAACACUGGAGCCGCUGGGAACUAAUUUGUAUGCGAAAGUAUAUUGAUUAGUUUUGGAGUACUCGUGGUCG
The method, boiled down: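 Six replicate transformations of E. coli BL21(DE3) with a pET-22b(+) library were grown overnight at 37°C or 30°C. The library randomised all eight P1ex-region intron nucleotides, the intron lying in the knt kanamycin-resistance gene, and plates were LB agar with or without 25 μg/mL kanamycin plus 100 μg/mL carbenicillin, 50 μM IPTG and 0.2% rhamnose. Pooled colonies were amplicon-sequenced on an Illumina HiSeq 2500, and fitness is the DiMSum error-weighted combination of wild-type-normalised replicate fold changes, kanamycin versus none.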

Take GGCAAGCAAUAUUACGGCCG: the “self-splicing fitness (ln)” value by setting is: (30 °C) -1.09 ± 0.11; (37 °C) 0.00962 ± 0.13. As for UCCUAGCAAUAUUACGAGUC, the “self-splicing fitness (ln)” value (30 °C) was -2.71 ± 0.31. In the case of CUACAGCAAUAUUACGAGAC, the “self-splicing fitness (ln)” value by setting is: (30 °C) -4.15 ± 0.2; (37 °C) -2.59 ± 0.16.

For the sequence GCUAAGCAAUAUUACGCCGC, the “self-splicing fitness (ln)” value (30 °C) is -2.72 ± 0.48. Consider GUGUAGCAAUAUUACGCCGC, for which the “self-splicing fitness (ln)” value (30 °C) is -3 ± 0.46 and the “self-splicing fitness (ln)” value (37 °C) was -2.79 ± 0.44. Turning to GAGUAGCAAUAUUACGCUCG, the “self-splicing fitness (ln)” value by setting is: (30 °C) -1.88 ± 0.28; (37 °C) -0.561 ± 0.29. Consider AUUUAGCAAUAUUACGUGGC, for which the “self-splicing fitness (ln)” value (30 °C) was -3.57 ± 0.43 and the “self-splicing fitness (ln)” value (37 °C) is -1.69 ± 0.32. As to UAUAAGCAAUAUUACGCACC, the “self-splicing fitness (ln)” value reads like this: (30 °C) -1.82 ± 0.3; (37 °C) -1.42 ± 0.3. As for CGGUAGCAAUAUUACGCUCA, the “self-splicing fitness (ln)” value runs as follows: (30 °C) -0.279 ± 0.15; (37 °C) -0.399 ± 0.21. In the same order, the values of GGCGAGCAAUAUUACGCUUC are -3.8 ± 0.34 and -2.53 ± 0.49.

GCUGAGCAAUAUUACGGUUA: the “self-splicing fitness (ln)” value (30 °C) is -1.74 ± 0.14 and the “self-splicing fitness (ln)” value (37 °C) is -0.208 ± 0.1. Regarding GUUAAGCAAUAUUACGUAGG, the “self-splicing fitness (ln)” value is, setting by setting: (30 °C) -1.73 ± 0.1; (37 °C) -1.16 ± 0.17. Turning to CUAGAGCAAUAUUACGCUGC, the “self-splicing fitness (ln)” value is -3.8 ± 0.33 (30 °C) and -2.33 ± 0.33 (37 °C). The like results for GACAAGCAAUAUUACGCGUG were, in that order, -2.54 ± 0.076 and -0.344 ± 0.071. Consider UAUGAGCAAUAUUACGCCCA, for which the “self-splicing fitness (ln)” value by setting is: (30 °C) -2.3 ± 0.27; (37 °C) 0.171 ± 0.49. As to GCAAAGCAAUAUUACGUAAC, the “self-splicing fitness (ln)” value runs as follows: (30 °C) -1.67 ± 0.12; (37 °C) -0.338 ± 0.15.

For the sequence UCUCAGCAAUAUUACGCAAG, the “self-splicing fitness (ln)” value is -4.47 ± 0.39 (30 °C) and -2.02 ± 0.2 (37 °C).

Take AUUUAGCAAUAUUACGCGUG: the “self-splicing fitness (ln)” value is, setting by setting: (30 °C) -1.2 ± 0.14; (37 °C) -0.97 ± 0.14. Turning to CUAAAGCAAUAUUACGUCUU, the “self-splicing fitness (ln)” value was -3.95 ± 0.22 (30 °C) and -3.24 ± 0.3 (37 °C). Regarding CCUGAGCAAUAUUACGAGGU, the “self-splicing fitness (ln)” value reads like this: (30 °C) -2.72 ± 0.17; (37 °C) -1.99 ± 0.15. In the same order, the values of AAACAGCAAUAUUACGGAGG are -4.68 ± 0.36 and -1.86 ± 0.2. On to GUAGAGCAAUAUUACGUUUA, for which the “self-splicing fitness (ln)” value was -2.09 ± 0.17 (30 °C) and -1.39 ± 0.17 (37 °C). On to UGUGAGCAAUAUUACGAACC, for which the “self-splicing fitness (ln)” value was -2.06 ± 0.24 (30 °C) and -0.336 ± 0.27 (37 °C). On to UGCUAGCAAUAUUACGGACG, for which the “self-splicing fitness (ln)” value by setting is: (30 °C) 0.0612 ± 0.08; (37 °C) 0.414 ± 0.099.

GCUCAGCAAUAUUACGGAUC: the “self-splicing fitness (ln)” value is, setting by setting: (30 °C) -0.0202 ± 0.09; (37 °C) -0.0789 ± 0.11. On to UCUUAGCAAUAUUACGGCCA, for which the “self-splicing fitness (ln)” value (30 °C) was -2.31 ± 0.38. As to UAAAAGCAAUAUUACGUCUC, the “self-splicing fitness (ln)” value reads like this: (30 °C) -3.48 ± 0.17; (37 °C) -3 ± 0.17. GAAUAGCAAUAUUACGGACG: the “self-splicing fitness (ln)” value was -1.84 ± 0.16 (30 °C) and -0.471 ± 0.22 (37 °C). As to CGCUAGCAAUAUUACGUAUG, the “self-splicing fitness (ln)” value is, setting by setting: (30 °C) -1.27 ± 0.066; (37 °C) -0.236 ± 0.09. Regarding UUAAAGCAAUAUUACGGGGU, the “self-splicing fitness (ln)” value (37 °C) was -2.21 ± 0.3. Turning to GAUCAGCAAUAUUACGCUCA, the “self-splicing fitness (ln)” value was -0.493 ± 0.084 (30 °C) and -0.611 ± 0.1 (37 °C).

Consider CCAUAGCAAUAUUACGCAUU, for which the “self-splicing fitness (ln)” value by setting is: (30 °C) -3.65 ± 0.26; (37 °C) -2.84 ± 0.36. Take GCACAGCAAUAUUACGACUA: the “self-splicing fitness (ln)” value (30 °C) is -1.17 ± 0.11 and the “self-splicing fitness (ln)” value (37 °C) is -0.702 ± 0.085. On to GUUUAGCAAUAUUACGGGCA, for which the “self-splicing fitness (ln)” value was -1.85 ± 0.17 (30 °C) and -0.96 ± 0.15 (37 °C).
